{"source": "paper PMC10286367", "proteins": {"B1": {"name": "NF-κB p65: Ogt cKO (protein)", "parent chain": "MDDLFPLIFPSEPAQASGPYVEIIEQPKQRGMRFRYKCEGRSAGSIPGERSTDTTKTHPTIKINGYTGPGTVRISLVTKDPPHRPHPHELVGKDCRDGYYEADLCPDRSIHSFQNLGIQCVKKRDLEQAISQRIQTNNNPFHVPIEEQRGDYDLNAVRLCFQVTVRDPAGRPLLLTPVLSHPIFDNRAPNTAELKICRVNRNSGSCLGGDEIFLLCDKVQKEDIEVYFTGPGWEARGSFSQADVHRQVAIVFRTPPYADPSLQAPVRVSMQLRRPSDRELSEPMEFQYLPDTDDRHRIEEKRKRTYETFKSIMKKSPFNGPTEPRPPTRRIAVPTRNSTSVPKPAPQPYTFPASLSTINFDEFSPMLLPSGQISNQALALAPSSAPVLAQTMVPSSAMVPLAQPPAPAPVLTPGPPQSLSAPVPKSTQAGEGTLSEALLHLQFDADEDLGALLGNSTDPGVFTDLASVDNSEFQQLLNQGVSMSHSTAEPMLMEYPEAITRLVTGSQRPPDPAPTPLGTSGLPNGLSGDEDFSSIADMDFSALLSQISS"}, "B2": {"name": "NF-κB p65: S396A (protein)", "parent chain": "B1 parent chain"}, "B3": {"name": "NF-κB p65: OE-Ogt (protein)", "parent chain": "B1 parent chain"}, "B4": {"name": "NF-κB p65: S384A (protein)", "parent chain": "B1 parent chain"}, "B5": {"name": "NF-κB p65: S370A (protein)", "parent chain": "B1 parent chain"}, "B6": {"name": "NF-κB p65: S374A (protein)", "parent chain": "B1 parent chain"}, "B7": {"name": "NF-κB p65: Ogt KD (protein)", "parent chain": "B1 parent chain"}}, "key": {"WB, cultured astrocytes": {"assay": "WB, cultured astrocytes", "details": "glycan lost; control: Ctrl astrocytes"}, "[1]": {"assay": "WB of cytoplasmic and nuclear fractions", "details": "glycan lost; control: Ctrl astrocytes"}, "[2]": {"assay": "WB of total p65, cultured astrocytes", "details": "glycan lost; control: Ctrl astrocytes"}, "IP-WB in N2a cells": {"assay": "IP-WB in N2a cells", "details": "glycan lost; control: wild-type p65-HA"}}}
{"protein": "B1", "values": [{"measurement": "other: p65 phosphorylation (p-p65 level)", "setting": "WB, cultured astrocytes", "result": "increases"}, {"measurement": "localisation_or_trafficking", "setting": "[1]", "result": "changes"}, {"measurement": "expression_or_secretion", "setting": "[2]", "result": "no change"}]}
{"protein": "B2", "values": [{"measurement": "other: p65 phosphorylation (p-p65 level)", "setting": "IP-WB in N2a cells", "result": "no change"}]}
{"protein": "B3", "values": [{"measurement": "other: p65 phosphorylation (p-p65 level)", "setting": "HA IP-WB in N2a cells; glycan gained, control: N2a cells without ectopic Ogt", "result": "decreases"}]}
{"protein": "B4", "values": [{"measurement": "other: p65 phosphorylation (p-p65 level)", "setting": "IP-WB in N2a cells", "result": "increases"}]}
{"protein": "B5", "values": [{"measurement": "other: p65 phosphorylation (p-p65 level)", "setting": "IP-WB in N2a cells", "result": "no change"}]}
{"protein": "B6", "values": [{"measurement": "other: p65 phosphorylation (p-p65 level)", "setting": "IP-WB in N2a cells", "result": "no change"}]}
{"protein": "B7", "values": [{"measurement": "other: p65 phosphorylation (p-p65 level)", "setting": "HA IP-WB in N2a cells; glycan lost, control: control N2a cells", "result": "increases"}]}
